In publication PMC9332313, “Folding and Binding Mechanisms of the SH2 Domain from Crkl” (Biomolecules, 2022):
Square brackets hold non-standard residues; d marks the D form. Ends that are not written are not given here. * marks the point of attachment. pY = N[C@@H](Cc1ccc(OP(=O)(O)O)cc1)C(=O)O; Dansyl = CN(C)c1cccc2c(S(=O)(=O)*)cccc12

Experiments:
Conditions in all cases: both partners purified
[1] = biological target: T1, SH2 domain of Crkl protein (residues 1-111), wild type (UniProt P46109 1-111); assay: stopped-flow fluorescence kinetics (FRET); dansyl-Pax112-123 constant at 2 μM mixed with Crkl-SH2 2 to 10 μM (pseudo-first-order, kon); koff by displacement of the preincubated 2 µM complex with excess non-dansylated Pax112-123 (30 μM); 283 K; 50 mM sodium-acetate pH 5.0, 0.5 M NaCl
T1 construct: Crkl adaptor protein, SH2 domain, residues 1-111; Subcloned in pET28b+; all experiments were done on the N-terminally His-tagged protein; also called Crkl-SH2; Crkl SH2 domain; source: E. coli BL21 (DE3), purified (HisTrap nickel column, desalting); not shown: His tag, N-terminal, kept

[2] = biological target: T2, SH2 domain of Crkl protein (residues 1-111), H33A variant (UniProt P46109 1-111, H33A); assay: as above
T2 construct: Crkl adaptor protein, SH2 domain, residues 1-111, His33 replaced by alanine; Site-directed mutant of m1 (QuikChange); source: E. coli BL21 (DE3), purified (HisTrap nickel column, desalting); not shown: His tag, N-terminal, kept

[3] = biological target: T3, SH2 domain of Crkl protein (residues 1-111), H80A variant (UniProt P46109 1-111, H80A); assay: as above
T3 construct: Crkl adaptor protein, SH2 domain, residues 1-111, His80 replaced by alanine; Site-directed mutant of m1 (QuikChange); source: E. coli BL21 (DE3), purified (HisTrap nickel column, desalting); not shown: His tag, N-terminal, kept

[4] = biological target: T4, SH2 domain of Crkl protein (residues 1-111), H91A variant (UniProt P46109 1-111, H91A); assay: stopped-flow fluorescence kinetics (FRET); dansyl-Pax112-123 constant at 2 μM mixed with Crkl-SH2 2 to 10 μM (pseudo-first-order, kon); koff by displacement of the preincubated 2 µM complex with excess non-dansylated Pax112-123 (30 μM); 283 K; 50 mM BisTRIS pH 6.0, 0.5 M NaCl
T4 construct: Crkl adaptor protein, SH2 domain, residues 1-111, His91 replaced by alanine; Site-directed mutant of m1 (QuikChange); source: E. coli BL21 (DE3), purified (HisTrap nickel column, desalting); not shown: His tag, N-terminal, kept

[5] = biological target: T1, SH2 domain of Crkl protein (residues …); assay: as above
[6] = biological target: T2, SH2 domain of Crkl protein (residues …); assay: as above
[7] = biological target: T3, SH2 domain of Crkl protein (residues …); assay: as above
[8] = biological target: T4, SH2 domain of Crkl protein (residues …); assay: stopped-flow fluorescence kinetics (FRET); dansyl-Pax112-123 constant at 2 μM mixed with Crkl-SH2 2 to 10 μM (pseudo-first-order, kon); koff by displacement of the preincubated 2 µM complex with excess non-dansylated Pax112-123 (30 μM); 283 K; 50 mM sodium-acetate pH 5.5, 0.5 M NaCl
[9] = biological target: T2, SH2 domain of Crkl protein (residues …); assay: as above
[10] = biological target: T3, SH2 domain of Crkl protein (residues …); assay: as above

T4 sequence (P46109 1-111 H91A): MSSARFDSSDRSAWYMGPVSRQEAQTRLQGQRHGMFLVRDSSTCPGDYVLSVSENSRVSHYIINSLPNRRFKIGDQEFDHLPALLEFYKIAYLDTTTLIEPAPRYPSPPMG
T2 sequence (P46109 1-111 H33A): as the sequence (P46109 1-111 H91A) above, with H33A, A91H counted along it
T1 sequence (P46109 1-111): as the sequence (P46109 1-111 H91A) above, with A91H counted along it
T3 sequence (P46109 1-111 H80A): as the sequence (P46109 1-111 H91A) above, with H80A, A91H counted along it

Kd [1]: 9.5 ± 1.7 µM
koff [1]: 49.1 ± 1.7 s⁻¹
kon [1]: 5.2e+06 ± 900000 M⁻¹ s⁻¹
Kd [2]: 7.6 ± 0.7 µM
koff [2]: 33.2 ± 1.4 s⁻¹
kon [2]: 4.4e+06 ± 300000 M⁻¹ s⁻¹
Kd [3]: 11.5 ± 1.2 µM
koff [3]: 52.7 ± 3.2 s⁻¹
kon [3]: 4.6e+06 ± 400000 M⁻¹ s⁻¹
Kd [4]: 3 ± 0.1 µM
koff [4]: 20 ± 0.3 s⁻¹
kon [4]: 6.6e+06 ± 200000 M⁻¹ s⁻¹
Kd [5]: 2.6 ± 0.2 µM
koff [5]: 20.8 ± 0.3 s⁻¹
kon [5]: 7.9e+06 ± 600000 M⁻¹ s⁻¹
Kd [6]: 3.3 ± 0.2 µM
koff [6]: 19.5 ± 0.4 s⁻¹
kon [6]: 5.9e+06 ± 300000 M⁻¹ s⁻¹
Kd [7]: 3.2 ± 0.1 µM
koff [7]: 19.6 ± 0.3 s⁻¹
kon [7]: 6.1e+06 ± 300000 M⁻¹ s⁻¹
Kd [8]: 4.3 ± 0.2 µM
koff [8]: 24.1 ± 0.4 s⁻¹
kon [8]: 5.6e+06 ± 300000 M⁻¹ s⁻¹
Kd [9]: 3.4 ± 0.4 µM
koff [9]: 22.8 ± 2.2 s⁻¹
kon [9]: 6.7e+06 ± 400000 M⁻¹ s⁻¹
Kd [10]: 2.5 ± 0.5 µM
koff [10]: 20 ± 3.7 s⁻¹
kon [10]: 7.9e+06 ± 900000 M⁻¹ s⁻¹
B1: dansylated Pax_(112–123) peptide (Dans-GEEEHV-pY-SFPNK) (peptide)
peptide: Dansyl-GEEEHV[pY]SFPNK
notes: The dansyl group is the FRET acceptor of Trp14 of the SH2 domain; source: synthetic peptide, bought: GenScript
